Assay results published in patent US20260242735A1.

What was measured:
Assay in all cases: alanine scan, flow cytometry, HEK293-T
human CD33 N113A (human) = human CD33 N113A (human) (UniProt P20138)
human CD33 N100A (human) = human CD33 N100A (human) (UniProt P20138)
human CD33 G94A (human) = human CD33 G94A (human) (UniProt P20138)
human CD33 L153A (human) = human CD33 L153A (human) (UniProt P20138)
human CD33 D70A (human) = human CD33 D70A (human) (UniProt P20138)
human CD33 A65S (human) = human CD33 A65S (human) (UniProt P20138)
human CD33 Q83A (human) = human CD33 Q83A (human) (UniProt P20138)
human CD33 S104A (human) = human CD33 S104A (human) (UniProt P20138)
human CD33 Y49A (human) = human CD33 Y49A (human) (UniProt P20138)
human CD33 G172A (human) = human CD33 G172A (human) (UniProt P20138)
human CD33 D51A (human) = human CD33 D51A (human) (UniProt P20138)
human CD33 N99A (human) = human CD33 N99A (human) (UniProt P20138)
human CD33 S102A (human) = human CD33 S102A (human) (UniProt P20138)
Sequence of human CD33 S102A (human) (P20138 18-364 S102A limits assumed): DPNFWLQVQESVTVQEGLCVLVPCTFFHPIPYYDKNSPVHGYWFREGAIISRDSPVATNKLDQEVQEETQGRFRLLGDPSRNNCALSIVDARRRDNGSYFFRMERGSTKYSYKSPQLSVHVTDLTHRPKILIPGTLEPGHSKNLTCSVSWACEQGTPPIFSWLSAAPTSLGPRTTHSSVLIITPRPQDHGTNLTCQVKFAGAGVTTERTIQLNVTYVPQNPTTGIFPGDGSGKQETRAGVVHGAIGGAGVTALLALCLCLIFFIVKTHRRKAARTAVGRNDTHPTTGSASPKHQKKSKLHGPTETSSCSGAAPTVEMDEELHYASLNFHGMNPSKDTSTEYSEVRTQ

human CD33 P48A (human) = human CD33 P48A (human) (UniProt P20138)
human CD33 T191A (human) = human CD33 T191A (human) (UniProt P20138)
human CD33 K52A (human) = human CD33 K52A (human) (UniProt P20138)
Sequence of human CD33 K52A (human) (P20138 18-364 K52A limits assumed): as the sequence (P20138 18-364 S102A limits assumed) above, with K35A, A85S counted along it

human CD33 I147A (human) = human CD33 I147A (human) (UniProt P20138)
Sequence of human CD33 I147A (human) (P20138 18-364 I147A limits assumed): as the sequence (P20138 18-364 S102A limits assumed) above, with A85S, I130A counted along it

human CD33 A168S (human) = human CD33 A168S (human) (UniProt P20138)
human CD33 N160A (human) = human CD33 N160A (human) (UniProt P20138)
Sequence of human CD33 N160A (human) (P20138 18-364 N160A limits assumed): as the sequence (P20138 18-364 S102A limits assumed) above, with A85S, N143A counted along it

human CD33 T162A (human) = human CD33 T162A (human) (UniProt P20138)
Sequence of human CD33 T162A (human) (P20138 18-364 T162A limits assumed): as the sequence (P20138 18-364 S102A limits assumed) above, with A85S, T145A counted along it

human CD33 S115A (human) = human CD33 S115A (human) (UniProt P20138)
human CD33 G151A (human) = human CD33 G151A (human) (UniProt P20138)
human CD33 Y129A (human) = human CD33 Y129A (human) (UniProt P20138)
human CD33 F90A (human) = human CD33 F90A (human) (UniProt P20138)
Sequence of human CD33 F90A (human) (P20138 18-364 F90A limits assumed): as the sequence (P20138 18-364 S102A limits assumed) above, with F73A, A85S counted along it

human CD33 S158A (human) = human CD33 S158A (human) (UniProt P20138)
Sequence of human CD33 S158A (human) (P20138 18-364 S158A limits assumed): as the sequence (P20138 18-364 S102A limits assumed) above, with A85S, S141A counted along it

human CD33 S195A (human) = human CD33 S195A (human) (UniProt P20138)
Sequence of human CD33 S195A (human) (P20138 18-364 S195A limits assumed): as the sequence (P20138 18-364 S102A limits assumed) above, with A85S, S178A counted along it

human CD33 T75A (human) = human CD33 T75A (human) (UniProt P20138)
human CD33 E81A (human) = human CD33 E81A (human) (UniProt P20138)
human CD33 D140A (human) = human CD33 D140A (human) (UniProt P20138)
human CD33 R109A (human) = human CD33 R109A (human) (UniProt P20138)
Sequence of human CD33 R109A (human) (P20138 18-364 R109A limits assumed): as the sequence (P20138 18-364 S102A limits assumed) above, with A85S, R92A counted along it

human CD33 L180A (human) = human CD33 L180A (human) (UniProt P20138)
human CD33 K126A (human) = human CD33 K126A (human) (UniProt P20138)
Sequence of human CD33 K126A (human) (P20138 18-364 K126A limits assumed): as the sequence (P20138 18-364 S102A limits assumed) above, with A85S, K109A counted along it

human CD33 E154A (human) = human CD33 E154A (human) (UniProt P20138)
human CD33 G64A (human) = human CD33 G64A (human) (UniProt P20138)
human CD33 F61A (human) = human CD33 F61A (human) (UniProt P20138)
human CD33 I105A (human) = human CD33 I105A (human) (UniProt P20138)
human CD33 E121A (human) = human CD33 E121A (human) (UniProt P20138)
Sequence of human CD33 E121A (human) (P20138 18-364 E121A limits assumed): as the sequence (P20138 18-364 S102A limits assumed) above, with A85S, E104A counted along it

human CD33 R190A (human) = human CD33 R190A (human) (UniProt P20138)
Sequence of human CD33 R190A (human) (P20138 18-364 R190A limits assumed): as the sequence (P20138 18-364 S102A limits assumed) above, with A85S, R173A counted along it

human CD33 S135A (human) = human CD33 S135A (human) (UniProt P20138)
human CD33 K146A (human) = human CD33 K146A (human) (UniProt P20138)
human CD33 S164A (human) = human CD33 S164A (human) (UniProt P20138)
human CD33 D95A (human) = human CD33 D95A (human) (UniProt P20138)
human CD33 E84A (human) = human CD33 E84A (human) (UniProt P20138)
human CD33 P132A (human) = human CD33 P132A (human) (UniProt P20138)
human CD33 E170A (human) = human CD33 E170A (human) (UniProt P20138)

Sequence of human CD33 N100A (human) (P20138 18-364 N100A limits assumed): as the sequence (P20138 18-364 S102A limits assumed) above, with N83A, A85S counted along it
Sequence of human CD33 N113A (human) (P20138 18-364 N113A limits assumed): as the sequence (P20138 18-364 S102A limits assumed) above, with A85S, N96A counted along it

Refmab #7 (WM53) (antibody)
Mean % WT Binding (human CD33 N113A (human)): 80 % WT binding
Mean % WT Binding (human CD33 N100A (human)): 128 % WT binding
Mean % WT Binding (human CD33 G94A (human)): 99.2 % WT binding
Mean % WT Binding (human CD33 L153A (human)): 101 % WT binding
Mean % WT Binding (human CD33 D70A (human)): 81.2 % WT binding
Mean % WT Binding (human CD33 A65S (human)): 117 % WT binding
Mean % WT Binding (human CD33 Q83A (human)): 120 % WT binding
Mean % WT Binding (human CD33 S104A (human)): 117 % WT binding
Mean % WT Binding (human CD33 Y49A (human)): 13.7 % WT binding
Mean % WT Binding (human CD33 G172A (human)): 92.1 % WT binding
Mean % WT Binding (human CD33 D51A (human)): 9.2 % WT binding
Mean % WT Binding (human CD33 N99A (human)): 102 % WT binding
Mean % WT Binding (human CD33 S102A (human)): 111 % WT binding
Mean % WT Binding (human CD33 P48A (human)): 42.5 % WT binding
Mean % WT Binding (human CD33 T191A (human)): 116 % WT binding
Mean % WT Binding (human CD33 K52A (human)): 76.8 % WT binding
Mean % WT Binding (human CD33 I147A (human)): 92 % WT binding
Mean % WT Binding (human CD33 A168S (human)): 117 % WT binding
Mean % WT Binding (human CD33 N160A (human)): 112 % WT binding
Mean % WT Binding (human CD33 T162A (human)): 103 % WT binding
Mean % WT Binding (human CD33 S115A (human)): 95.1 % WT binding
Mean % WT Binding (human CD33 G151A (human)): 121 % WT binding
Mean % WT Binding (human CD33 Y129A (human)): 155 % WT binding
Mean % WT Binding (human CD33 F90A (human)): 83.3 % WT binding
Mean % WT Binding (human CD33 S158A (human)): 113 % WT binding
Mean % WT Binding (human CD33 S195A (human)): 117 % WT binding
Mean % WT Binding (human CD33 T75A (human)): 115 % WT binding
Mean % WT Binding (human CD33 E81A (human)): 98.4 % WT binding
Mean % WT Binding (human CD33 D140A (human)): 116 % WT binding
Mean % WT Binding (human CD33 R109A (human)): 127 % WT binding
Mean % WT Binding (human CD33 L180A (human)): 105 % WT binding
Mean % WT Binding (human CD33 K126A (human)): 156 % WT binding
Mean % WT Binding (human CD33 E154A (human)): 108 % WT binding
Mean % WT Binding (human CD33 G64A (human)): 119 % WT binding
Mean % WT Binding (human CD33 F61A (human)): 123 % WT binding
Mean % WT Binding (human CD33 I105A (human)): 56.1 % WT binding
Mean % WT Binding (human CD33 E121A (human)): 94.4 % WT binding
Mean % WT Binding (human CD33 R190A (human)): 123 % WT binding
Mean % WT Binding (human CD33 S135A (human)): 101 % WT binding
Mean % WT Binding (human CD33 K146A (human)): 91.1 % WT binding
Mean % WT Binding (human CD33 S164A (human)): 123 % WT binding
Mean % WT Binding (human CD33 D95A (human)): 104 % WT binding
Mean % WT Binding (human CD33 E84A (human)): 109 % WT binding
Mean % WT Binding (human CD33 P132A (human)): 104 % WT binding
Mean % WT Binding (human CD33 E170A (human)): 118 % WT binding
